Reference: patent publication US20240116985A1 (published 2024)
Starred links: 1 amine or outer side, 2 acyl side, 3 side chain; linkers in the order of their positions; H or OH if unused. Positions of bridges follow the written chain, without caps; N, C: chain ends. Non-standard residues stand in square brackets, D forms with d. Primed or numbered codes have the meaning given here. *: point of attachment. B5(24) = 2-amino-2-(pent-4-en-1-yl)hept-6-enoic acid, 2,2-bis(4-pentenyl)glycine (stitching residue), C=CCCCC(CCCC=C)(N[*:1])C(=O)[*:2]; B5(4) = 2,2-bis(4-pentenyl)glycine = 2-amino-2-(pent-4-en-1-yl)hept-6-enoic acid (stitching residue), C=CCCCC(CCCC=C)(N[*:1])C(=O)[*:2]; PyrS = (S)-1-((allyloxy)carbonyl)-3-aminopyrrolidine-3-carboxylic acid, C=CCOC(=O)N1CC[C@@](N[*:1])(C(=O)[*:2])C1; 6F1NapA = 2-amino-3-(6-fluoronaphthalen-1-yl)propanoic acid, O=C([C@H](Cc1cccc2cc(F)ccc12)N[*:1])[*:2]; B5 = 2-amino-2-(pent-4-en-1-yl)hept-6-enoic acid, C=CCCCC(CCCC=C)(N[*:1])C(=O)[*:2]; Phe(3,4-F2) = N[C@@H](Cc1ccc(F)c(F)c1)C(=O)O; Phe(3-F) = N[C@@H](Cc1cccc(F)c1)C(=O)O; Phe(4-F) = N[C@@H](Cc1ccc(F)cc1)C(=O)O; Bta = N[C@@H](Cc1csc2ccccc12)C(=O)O; αAllylPro = C=CC[C@@]1(C(=O)O)CCCN1; Azidoacetyl = [N-]=[N+]=NCC(=O)*; R8 = C=CCCCCCC[C@@](C)(N)C(=O)O; S8 = C=CCCCCCC[C@](C)(N)C(=O)O; Nicotinoyl = O=C(c1cccnc1)*

B1: I-576 (peptide)
peptide: XDLXDEAAFNXFXQ
modifications: not fully specified; Ac-PL3-Asp-Leu-B5-Asp-Glu-Ala-Ala-Phe-Asn-S8-Phe-BztA-Gln-NH2; stapled PL3(1)-B5(4) and B5(4)-S8(11) by olefin metathesis
notes: Stapled peptide composition; same description as I-577, earlier eluting HPLC peak (staple isomer)
B2: I-577 (peptide)
peptide: XDLXDEAAFNXFXQ
modifications: not fully specified; Ac-PL3-Asp-Leu-B5-Asp-Glu-Ala-Ala-Phe-Asn-S8-Phe-BztA-Gln-NH2; stapled PL3(1)-B5(4) and B5(4)-S8(11) by olefin metathesis
notes: Stapled peptide composition; same description as I-576, later eluting HPLC peak (staple isomer)
B3: I-578 (peptide)
peptide: XDAXDDAAFQXFXQ
modifications: not fully specified; Ac-PL3-Asp-Ala-B5-Asp-Asp-Ala-Ala-Phe-Gln-S8-Phe-BztA-Gln-NH2; stapled PL3(1)-B5(4) and B5(4)-S8(11) by olefin metathesis
notes: Stapled peptide composition; the description may be misprinted
B4: I-579 (peptide)
peptide: Ac-FDA[R8]DDAAFQ[PyrS]FWQ-NH2
modifications: staple 4-11; not fully specified; printed as Ac-Phe-Asp-Ala-R8-Asp-Asp-Ala-Ala-Phe-Gln-PyrS-Phe-Trp-Gln-NH2
notes: Stapled peptide composition
B5: I-581 (peptide)
peptide: XDIXDDAAFQXFXH
modifications: not fully specified; Ac-PL3-Asp-Ile-B5-Asp-Asp-Ala-Ala-Phe-Gln-S8-Phe-BztA-His-NH2; stapled PL3(1)-B5(4) and B5(4)-S8(11) by olefin metathesis
notes: Stapled peptide composition; same description as I-580, later eluting HPLC peak (staple isomer)
B6: I-586 (peptide)
peptide: Ac-[αAllylPro]DI[B5(24)]DEAA[Bta]Q[S8]FFQ-NH2
modifications: staple 1-4, 4-11; not fully specified; printed as Ac-PL3-Asp-Ile-B5-Asp-Glu-Ala-Ala-BztA-Gln-S8-Phe-Phe-Gln-NH2
notes: Stapled peptide composition
B7: I-598 (peptide)
peptide: Nicotinoyl-[αAllylPro]DI[B5]DEAAFQ[S8]F[Bta]Q-NH2
modifications: staple 1-4, 4-11
notes: Stapled peptide composition; N-terminal cap Nic
B8: I-589 (peptide)
peptide: XDKXDEAAFQXFXQ
modifications: not fully specified; Ac-PL3-Asp-[AzAc]Lys-B5-Asp-Glu-Ala-Ala-Phe-Gln-S8-Phe-BztA-Gln-NH2; stapled PL3(1)-B5(4) and B5(4)-S8(11) by olefin metathesis
notes: Stapled peptide composition; same description as I-590, earlier eluting HPLC peak (staple isomer)
B9: I-256 (peptide)
peptide: Ac-[αAllylPro]DA[B5(4)]D[6F1NapA]AAFV[S8]FWQ-NH2
modifications: staple 1-4, 4-11
notes: Stapled (stitched) peptide; also called Ac-PL3-Asp-Ala-B5-Asp-6F1NapA-Ala-Ala-Phe-Val-S8-Phe-Trp-Gln-NH2
B10: I-257 (peptide)
peptide: Ac-[αAllylPro]DA[B5(4)]D[Phe(3-F)]AAFV[S8]FWQ-NH2
modifications: staple 1-4, 4-11
notes: Stapled (stitched) peptide; also called Ac-PL3-Asp-Ala-B5-Asp-3FF-Ala-Ala-Phe-Val-S8-Phe-Trp-Gln-NH2
B11: I-258 (peptide)
peptide: Ac-[αAllylPro]DA[B5]D[Phe(4-F)]AAFV[S8]FWQ-NH2
modifications: staple 1-4, 4-11
notes: Stapled (stitched) peptide; also called Ac-PL3-Asp-Ala-B5-Asp-4FF-Ala-Ala-Phe-Val-S8-Phe-Trp-Gln-NH2
B12: I-259 (peptide)
peptide: Ac-[αAllylPro]DA[B5]D[Phe(3,4-F2)]AAFV[S8]FWQ-NH2
modifications: staple 1-4, 4-11
notes: Stapled (stitched) peptide; also called Ac-PL3-Asp-Ala-B5-Asp-34FF-Ala-Ala-Phe-Val-S8-Phe-Trp-Gln-NH2
B13: I-274 (peptide)
peptide: Ac-[αAllylPro]DA[B5(4)]DYAAFV[S8]FWQ-NH2
modifications: staple 1-4, 4-11
notes: Stapled (stitched) peptide; also called Ac-PL3-Asp-Ala-B5-Asp-Tyr-Ala-Ala-Phe-Val-S8-Phe-Trp-Gln-NH2
B14: I-279 (peptide)
peptide: XEAXDDAAFVXFWQ
modifications: not fully specified; N-terminal Ac; PL3 at 1; B5 at 4; S8 at 11; C-terminal NH2; staples PL3(1)-B5(4) and B5(4)-S8(11) by olefin metathesis
notes: Stapled (stitched) peptide; also called Ac-PL3-Glu-Ala-B5-Asp-Asp-Ala-Ala-Phe-Val-S8-Phe-Trp-Gln-NH2
B15: I-280 (peptide)
peptide: XEAXDDAAFVXFWQ
modifications: not fully specified; N-terminal Ac; PL3 at 1; B5 at 4; S8 at 11; C-terminal NH2; staples PL3(1)-B5(4) and B5(4)-S8(11) by olefin metathesis
notes: as for B14

Each binder was assayed against T1, full-length beta-Catenin (Uniprot ID P35222) (Homo sapiens (Human), UniProt P35222 1-781) (assay: fluorescence polarization competition; full-length beta-catenin, competitor 5FAM-TCF4(10-53) probe).
T1 construct: The assay text says 'full-length beta-Catenin (Uniprot ID P35222)'; also called bCat; B-Catenin
T1 sequence: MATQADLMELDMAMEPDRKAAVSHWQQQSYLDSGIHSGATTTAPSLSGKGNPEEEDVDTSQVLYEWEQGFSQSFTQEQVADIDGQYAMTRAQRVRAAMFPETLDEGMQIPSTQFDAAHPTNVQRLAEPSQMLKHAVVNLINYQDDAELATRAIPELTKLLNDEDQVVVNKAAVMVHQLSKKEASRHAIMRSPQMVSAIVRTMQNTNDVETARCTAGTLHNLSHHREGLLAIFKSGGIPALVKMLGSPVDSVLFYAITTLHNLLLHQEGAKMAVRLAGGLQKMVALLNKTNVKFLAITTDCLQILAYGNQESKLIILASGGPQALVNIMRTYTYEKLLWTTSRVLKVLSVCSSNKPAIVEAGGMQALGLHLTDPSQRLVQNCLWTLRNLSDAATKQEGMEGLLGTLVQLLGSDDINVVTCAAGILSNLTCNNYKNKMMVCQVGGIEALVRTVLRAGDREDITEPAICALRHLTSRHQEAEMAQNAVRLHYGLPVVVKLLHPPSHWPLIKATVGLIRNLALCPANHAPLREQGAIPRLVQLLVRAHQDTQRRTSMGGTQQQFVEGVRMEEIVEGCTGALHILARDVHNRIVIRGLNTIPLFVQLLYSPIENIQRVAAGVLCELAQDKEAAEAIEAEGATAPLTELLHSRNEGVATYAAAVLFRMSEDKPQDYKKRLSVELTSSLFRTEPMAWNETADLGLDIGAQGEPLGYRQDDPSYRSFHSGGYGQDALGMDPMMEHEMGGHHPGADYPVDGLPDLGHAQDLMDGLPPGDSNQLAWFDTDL
Experimental: (§1) The plate was incubated protected from light for 60 minutes at 20° C. prior to read. Reads were performed on a CLARIOstar plate reader (BMG Labtech) in duplicate, and data were fitted to a 1:1 binding model with hill slope using an in-house script. All provided concentrations are final concentrations.

Binder	EC50 [µM]
B1	0.023
B2	0.013
B3	5
B4	5
Ac-[αAllylPro]DI[B5]DDAAFQ[S8]F[Bta]H-NH2 (staple 1-4, 4-11; not fully specified, Stapled peptide composition) [I-580]	0.114
B5	0.112
Ac-[αAllylPro]DI[B5(24)]DEAA[Bta]Q[S8]FFQ-NH2 (staple 1-4, 4-11; not fully specified, Stapled peptide composition) [I-585]	5
B6	5
Ac-[αAllylPro]DI[B5(24)]FEAAFQ[S8]D[Bta]Q-NH2 (staple 1-4, 4-11, Stapled peptide composition) [I-587]	5
Ac-[αAllylPro]FI[B5(24)]DEAADQ[S8]F[Bta]Q-NH2 (staple 1-4, 4-11, Stapled peptide composition) [I-588]	5
B7	0.845
B8	0.048
Ac-[αAllylPro]DK(Azidoacetyl)[B5(4)]DEAAFQ[S8]F[Bta]Q-NH2 (staple 1-4, 4-11; not fully specified, Stapled peptide composition) [I-590]	0.045

Each binder was assayed against T2, full-length beta-Catenin (Uniprot ID P35222) (Homo sapiens (Human), UniProt P35222 1-781) (assay: AlphaScreen competition; full-length beta-catenin with biotin-labelled TCF4 10-53 peptide as competitor).
T2 construct: The assay protocols call it full-length; also called B-Catenin; bCat
T2 sequence: T1 sequence
Experimental: as §1, with “Equal volume of the titrated peptide was added to the” for “The”, “and” for “was”, “incubated for 15 minutes at 20° C. Then 4 uL of donor and 4 uL acceptor beads at 10 ug/mL were added to the plate, for a 16 uL reaction pool and” for “incubated”

Binder	EC50 [µM]
B9	9.21
B10	3.81
B11	2.93
B12	4.18
B13	2.35
B14	4.96
B15	3.05
